Assay results: patent US20260240820A1 (ION CHAT RESEARCH CORPORATE, published 2026)
Where no end group is shown, it is not given here.

B1: Human Type I taste receptor T1R3 (receptor, UniProt Q7RTX0 21-852, looked up)
chain: APLCLSQQLRMKGDYVLGGLFPLGEAEEAGLRSRTRPSSPVCTRFSSNGLLWALAMKMAVEEINNKSDLLPGLRLGYDLFDTCSEPVVAMKPSLMFLAKAGSRDIAAYCNYTQYQPRVLAVIGPHSSELAMVTGKFFSFFLMPQVSYGASMELLSARETFPSFFRTVPSDRVQLTAAAELLQEFGWNWVAALGSDDEYGRQGLSIFSALAAARGICIAHEGLVPLPRADDSRLGKVQDVLHQVNQSSVQVVLLFASVHAAHALFNYSISSRLSPKVWVASEAWLTSDLVMGLPGMAQMGTVLGFLQRGAQLHEFPQYVKTHLALATDPAFCSALGEREQGLEEDVVGQRCPQCDCITLQNVSAGLNHHQTFSVYAAVYSVAQALHNTLQCNASGCPAQDPVKPWQLLENMYNLTFHVGGLPLRFDSSGNVDMEYDLKLWVWQGSVPRLHDVGRFNGSLRTERLKIRWHTSDNQKPVSRCSRQCQEGQVRRVKGFHSCCYDCVDCEAGSYRQNPDDIACTFCGQDEWSPERSTRCFRRRSRFLAWGEPAVLLLLLLLSLALGLVLAALGLFVHHRDSPLVQASGGPLACFGLVCLGLVCLSVLLFPGQPSPARCLAQQPLSHLPLTGCLSTLFLQAAEIFVESELPLSWADRLSGCLRGPWAWLVVLLAMLVEVALCTWYLVAFPPEVVTDWHMLPTEALVHCRTRSWVSFGLAHATNATLAFLCFLGTFLVRSQPGCYNRARGLTFAMLAYFITWVSFVPLLANVQVVLRPAVQMGALLLCVLGILAAFHLPRCYLLMRQPGLNTPEFFLGGGPGDAQGQNDGNTGNQGKHE
notes: whole, on cells; Present on the cells as a T1R3/T1R3 homodimer or as a heterodimer with T1R2 or T1R1; also called TAS1R3; hT1R3

How the values were obtained:
[1] = target: B1; experiment: fluorescence microscopy on SH-SY5Y cells
[2] = target: T1, Fluorescent Aβ1-40 peptide (fluorescent label; dye and position not stated); experiment: fluorescence microscopy on cell surfaces
T1 construct: also called labeled Aβ1-40 peptide

Amyloid β peptide Aβ1-42 = target: T2, Amyloid β peptide Aβ1-42; experiment: assay not described
T2 construct: Bought (Wako Pure Chemical Industries); also called Aβ42; amyloid β1-42 peptide
T2 sequence (peptide, as listed by the source): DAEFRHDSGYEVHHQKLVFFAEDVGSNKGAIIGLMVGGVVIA

T1 sequence (peptide, as listed by the source): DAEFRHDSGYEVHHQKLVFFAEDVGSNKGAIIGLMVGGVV

Row | Binder | binding result [1] | binding result [2] | binding result (Amyloid β peptide Aβ1-42)
1 | GSNKGAIIGLM (also: fluorescent label, dye and position not given here, also called fluorescent Aβ25-35 peptide) [Fluorescently labeled Aβ25-35 peptide (FL-Aβ25-35)] | binds | – | –
2 | B1 | – | binds | binds
